Here are results for two molecules from patent US20100143268A1, “Formulations for Delivery Via Pressurised Metered Dose Inhalers Comprising an Essential Oil as Suspension Stabiliser” (priority 2006, published 2010).

A short description of data set [1]: Integrity of insulin by GPC, HPLC, circular dichroism and fluorescence spectroscopy. The format is physicochemical. The protocol: The formulations were also assessed for the integrity of insulin using gel permeation chromatography (GPC), high performance liquid chromatography (HPLC), circular dichroism and fluorescence spectroscopy.
The conditions of data set [2]: Tong et al, Pharm. Res. (2001) 18, 852-858; cited from earlier work.

Turning to insulin, the “chemical degradation of insulin during the formulation process” value in data set [1] (GPC and HPLC chromatograms compared to standard insulin) is listed as “not chemically degraded”. Moreover, the “secondary structures of insulin after processing” value in data set [1] (far-UV circular dichroism, from the nanoparticles after delivery from the pMDI vs unprocessed control) is reported as “retained”. For the same molecule, in data set [1] (near-UV CD, peak around 275 nm, confirmed by fluorescence spectra), the “tertiary structures of insulin after processing” value is reported as “retention”.

Turning to `OCc1cc(C(O)CNCCCCCCOCCCCc2ccccc2)ccc1O` (stereo not shown) [SX, Salmeterol Xinafoate], the aqueous solubility in data set [2] is 66 to 81 µg/mL.
